For experiment [1], the target named is T1, human B7H3 (CD276) on the cell surface (human, UniProt Q5ZPR3 29-534).
T1 construct: B7H3 on A375 and other B7H3-positive or transfected cells
T1 sequence: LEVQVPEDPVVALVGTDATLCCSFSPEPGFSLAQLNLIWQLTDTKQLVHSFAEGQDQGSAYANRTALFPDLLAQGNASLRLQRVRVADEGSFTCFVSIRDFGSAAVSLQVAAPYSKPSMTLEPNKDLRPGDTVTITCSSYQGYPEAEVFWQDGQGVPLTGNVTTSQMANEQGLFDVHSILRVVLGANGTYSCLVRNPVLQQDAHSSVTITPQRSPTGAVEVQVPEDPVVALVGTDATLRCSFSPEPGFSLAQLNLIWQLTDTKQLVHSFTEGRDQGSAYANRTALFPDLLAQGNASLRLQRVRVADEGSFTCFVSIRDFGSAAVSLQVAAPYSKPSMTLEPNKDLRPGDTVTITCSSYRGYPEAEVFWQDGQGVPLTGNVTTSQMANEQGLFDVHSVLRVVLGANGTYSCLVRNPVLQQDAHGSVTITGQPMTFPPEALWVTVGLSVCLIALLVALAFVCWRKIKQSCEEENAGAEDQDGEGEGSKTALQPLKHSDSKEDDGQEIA
Kind of experiment: flow cytometry on A375 cells (B7H3+), anti-human Fc secondary. Here is the method:
(§1) Binding of exemplary multispecific constructs containing an antigen-binding domain directed against B7H3 were assessed for binding to B7H3 positive A375 tumor cells or primary T-cells. The constructs were generated containing antigen-binding domain(s) that were either sdAbs or a FABs, and that were positioned either only N-terminal to the Fc or both N-terminal to the Fc and C-terminal to the anti-CD3 binding domain (see FIGS. 30A and 30C and Table E5). Among the various formats of constructs tested included: sdAb-Fc-dsFV-sdAb (cx3072, cx5952) sdAb-Fc-FV (cx6079), sdAb-Fc-dsFV (cs6080, cx6081), MAB-FV (cx5067) and MAB-dsFV (cx6083, cx6084), where the FV represents the anti-CD3 binding domain composed of VH and VL domain pairs and “ds” notes disulfide stabilized via an engineered interdomain disulfide bond.
(§2) Binding was assessed as described above via flow cytometry using a fluorophore-conjugated anti-human Fc secondary antibody. cx3072 bound to A375 cells with high affinity (FIG. 31A) but not to isolated T-cells (FIG. 31B). […] The B7H3 -targeting sdAb containing constructs (cx5952, cx6079, cx6080, and cx6081) bound to B7H3 positive cells with similar affinities (depicted in FIG. 31E), with cx5952 displaying higher maximal binding. cx6079, cx6080 and cx6081 contain two identical B7H3-targeting sdAbs, whereas cx5952, and cx3072 contain two distinct B7H3-targeting sdAb that bind different epitopes. The MAB-FV, cx5067, contains two identical B7H3-targeting FAB domains.

The target of experiment [2] is T2, CD3 on the surface of human T cells (human, UniProt P07766 23-207).
T2 construct: whole, on cells; Part of the CD3/TCR complex on cells; also called CD3 epsilon
Kind of experiment: flow cytometry on primary human T cells, anti-human Fc secondary. Here is the method:
as §1, §2
On the technique in general: In flow cytometry, cells or beads pass a laser one at a time.

The source of these data is patent publication US20230124851A1 (INHIBRX LNC, published 2023).

T2 sequence (P07766 23-207): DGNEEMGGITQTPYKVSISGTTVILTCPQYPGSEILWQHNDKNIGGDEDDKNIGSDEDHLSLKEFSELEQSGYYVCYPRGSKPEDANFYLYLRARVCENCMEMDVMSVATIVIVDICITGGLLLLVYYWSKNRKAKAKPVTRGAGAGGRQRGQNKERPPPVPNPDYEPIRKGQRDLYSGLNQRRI

B1: cx6080 (bispecific antibody)
chain 1: EVQLVESGGGEVQPGGSLRLSCAASGFSFSSNVMMWVRQAPGKGLEWVSTIYSSGTGTFYAESVKGRFTISRDNAKNTLYLQMSSLRPEDTAVYYCATSGPVRGWGPRSQGTLVTVKPPGGGGDKTHTCPPCPAPPVAGPSVFLFPPKPKDTLMISRTPEVTCVVVDVKHEDPEVKFNWYVDGVEVHNAKTKPREEEYNSTYRVVSVLTVLHQDWLNGKEYKCKVSNKALPAPIEKTISKAKGQPREPQVYTLPPSREEMTKNQVSLTCDVSGFYPSDIAVEWESDGQPENNYKTTPPVLDSDGSFFLYSKLTVDKSRWEQGDVFSCSVMHEALHNHYTQKSLSLSPGKGGGGSGGGGSGGGGSEVQLVESGGGLVQPGGSLRLSCAASGFTFSTYAMNWVRQAPGKCLEWVGRIRSKYNNYATYYADSVKGRFTISRDDSKNTLYLQMNSLRAEDTAVYYCVRHGNFGDSYVSWFAYWGQGTLVTVSS
chain 2: EVQLVESGGGEVQPGGSLRLSCAASGFSFSSNVMMWVRQAPGKGLEWVSTIYSSGTGTFYAESVKGRFTISRDNAKNTLYLQMSSLRPEDTAVYYCATSGPVRGWGPRSQGTLVTVKPPGGGGDKTHTCPPCPAPPVAGPSVFLFPPKPKDTLMISRTPEVTCVVVDVKHEDPEVKFNWYVDGVEVHNAKTKPREEQYNSTYRVVSVLTVLHQDWLNGKEYKCKVSNKALPAPIEKTISKAKGQPREPQVYTLPPSREQMTKNQVKLTCLVKGFYPSDIAVEWESNGQPENNYKTTPPVLDSDGSFFLYSKLTVDKSRWQQGNVFSCSVMHEALHNHYTQKSLSLSPGKGGGGSGGGGSGGGGSQAVVTQEPSLTVSPGGTVTLTCGSSTGAVTTSNYANWVQQKPGKSPRGLIGGTNKRAPGVPARFSGSLLGGKAALTISGAQPEDEADYYCALWYSNHWVFGCGTKLTVL
notes: also called cs6080; sdAb-Fc-dsFV
Regarding B1, the values for the binding result in experiment [1] and in experiment [2] were “binds” and “no binding”, respectively.

B2: cx6081 (bispecific antibody)
chain 1: EVQLVESGGGEVQPGGSLRLSCAASGFSFSSNVMMWVRQAPGKGLEWVSTIYSSGTGTFYAESVKGRFTISRDNAKNTLYLQMSSLRPEDTAVYYCATSGPVRGWGPRSQGTLVTVKPPGGGGDKTHTCPPCPAPPVAGPSVFLFPPKPKDTLMISRTPEVTCVVVDVKHEDPEVKFNWYVDGVEVHNAKTKPREEEYNSTYRVVSVLTVLHQDWLNGKEYKCKVSNKALPAPIEKTISKAKGQPREPQVYTLPPSREEMTKNQVSLTCDVSGFYPSDIAVEWESDGQPENNYKTTPPVLDSDGSFFLYSKLTVDKSRWEQGDVFSCSVMHEALHNHYTQKSLSLSPGKGGGGSGGGGSGGGGSEVQLVESGGGLVQPGGSLRLSCAASGFTFNTYAMNWVRQAPGKCLEWVARIRSKYNNYATYYADSVKGRFTISRDDAKNTLYLQMSSLRAEDTAVYYCVRHGNFGNSYVSWFAYWGQGTLVTVKP
chain 2: EVQLVESGGGEVQPGGSLRLSCAASGFSFSSNVMMWVRQAPGKGLEWVSTIYSSGTGTFYAESVKGRFTISRDNAKNTLYLQMSSLRPEDTAVYYCATSGPVRGWGPRSQGTLVTVKPPGGGGDKTHTCPPCPAPPVAGPSVFLFPPKPKDTLMISRTPEVTCVVVDVKHEDPEVKFNWYVDGVEVHNAKTKPREEQYNSTYRVVSVLTVLHQDWLNGKEYKCKVSNKALPAPIEKTISKAKGQPREPQVYTLPPSREQMTKNQVKLTCLVKGFYPSDIAVEWESNGQPENNYKTTPPVLDSDGSFFLYSKLTVDKSRWQQGNVFSCSVMHEALHNHYTQKSLSLSPGKGGGGSGGGGSGGGGSQAVVTQEPSLTVSPGGTVTLTCGSSTGAVTTSNYANWVQQKPGQAFRGLIGGTNKRAPGVPARFSGSLLGGKAALTISGAQPEDEADYYCALWYSNHWVFGCGTKLEIK
notes: also called sdAb-Fc-dsFV
Consider B2, for which the binding result in experiment [1] is listed as “binds”; in experiment [2], “no binding”.
